Experimental data from patent US8729030B2 (Affymax, Inc., priority 2003, dated 2014).
Bridges are numbered along the chain shown (N, C = ends). Where no end group is shown, it is not given here. [ ]: non-standard residue; d: D form. 1Nal = N[C@@H](Cc1cccc2ccccc12)C(=O)O; Sar = CNCC(=O)O

Target: T1, human EPO-R (Homo sapiens, UniProt P19235)
T1 construct: expressed in transfected cells; host or cells: murine pre-B-cell line Baf3 (BaF3/Gal4/Elk/EPOR)
T1 sequence (P19235 25-508): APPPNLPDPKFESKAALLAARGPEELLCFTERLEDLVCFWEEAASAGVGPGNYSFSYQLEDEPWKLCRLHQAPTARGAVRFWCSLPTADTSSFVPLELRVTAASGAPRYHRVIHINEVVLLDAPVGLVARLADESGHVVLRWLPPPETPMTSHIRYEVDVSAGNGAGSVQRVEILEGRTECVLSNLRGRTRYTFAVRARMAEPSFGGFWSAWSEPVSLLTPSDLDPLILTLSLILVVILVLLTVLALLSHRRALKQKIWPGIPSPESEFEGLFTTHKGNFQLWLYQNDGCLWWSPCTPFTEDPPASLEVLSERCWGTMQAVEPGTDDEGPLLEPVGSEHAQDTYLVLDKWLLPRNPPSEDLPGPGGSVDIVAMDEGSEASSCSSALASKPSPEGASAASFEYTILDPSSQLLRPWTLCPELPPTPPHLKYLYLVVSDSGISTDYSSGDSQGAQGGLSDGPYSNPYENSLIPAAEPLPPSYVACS
Assay: Proliferation assay (BaF3/Gal4/Elk/EPOR cells, MTT)
Format: cell-based
Conditions: Table 6, 48 h
Description: This assay is based upon a murine pre-B-cell line, Baf3, transfected to express human EPO-R. Proliferation of the resulting cell line, BaF3/Gal4/Elk/EPOR, is dependent on EPO-R activation. The degree of cell proliferation is quantitated using MTT, where the signal in the MTT assay is proportional to the number of viable cells.
The BaF3/Gal4/Elk/EPOR cells are cultured in spinner flasks in DMEM/F12 medium (Gibco) supplemented with 10% FBS (Hyclone) and 2% WEHI-3 supernatant (ATCC #TIB-68). Cultured cells are starved overnight, in a spinner flask at a cell density of 1×10^6 cells/ml, in DMEM/F12 medium supplemented with 10% FBS and 0.1% WEHI-3 supernatant. […] Absorbance of each well at a wavelength of 595 nm is then measured by spectrophotometry. Plots of the absorbance readings versus test peptide concentration are constructed and the EC50 calculated using Graph Pad software. The concentration of test peptide that results in a half-maximal absorbance is recorded as the EC50[See Table 2: Proliferation EC50].
The BaF3/Gal4/Elk/EPOR cells are cultured in spinner flasks in DMEM/F12 medium (Gibco) supplemented with 10% FBS (Hyclone) and 2% WEHI-3 supernatant (ATCC #TIB-68). […] Absorbance of each well at a wavelength of 595 nm is then measured by spectrophotometry. Plots of the absorbance readings versus test peptide concentration are constructed and the EC50 calculated using Graph Pad software. […]

peptide dimer of monomers (AcG)GLYACHMGPIT(1-nal)VCQPLR(MeG)K (SEQ ID NO: 2) (Ac-GGLYACHMGPIT[1Nal]VCQPLR[Sar]K; disulfide 6-15 (inferred); not fully specified (residue 1); printed as (AcG)GLYACHMGPIT(1-nal)VCQPLR(MeG)K; also: homodimer, dimer linkage not given here) [Peptide I]
EC50: 0.165 nM
